Square brackets hold non-standard residues; d marks the D form. Ends that are not written are not given here. Hyp = O=C(O)[C@@H]1C[C@@H](O)CN1

Holding throughout (assay): ELISA; ELISA-based binding assay: pVHL variant (10 µg/ml, 100 µl) coated on the plate overnight at 4°C, blocked with 5% BSA; TAMRA-labelled Hyp402-ODD peptide added at increasing concentrations, 1 h at 25°C; high salt buffer (10 mM Tris-HCl pH 8.5, 500 mM NaCl) without Arginine; fluorescence at 580 nm
For orientation: In an ELISA, binding on a coated surface is turned into a signal by an enzyme label.

The target in assay [1] is pVHL F119L mutant, 19 kDa form (human).
Assay [2] has as its target pVHL F136L mutant, 19 kDa form (human).
Assay [3] concerns the target pVHL N78S mutant, 19 kDa form (human).

With LDLEALA[Hyp]YIPADDDFQLRS (also: TAMRA (rhodamine) label, end not given here) [Hyp402-ODD target peptide of HIF-1α], the fold lower affinity than the WT in assay [1] came out at 2.5 fold; in assay [2], 5 fold; in assay [3], 2 fold.

Source of the values: publication PMC3688787.
